Read-outs that look alike come from different tables or passages of the source.

For assay [1], the target named is T1, His-tagged human HER3 (human, UniProt P21860 20-643).
T1 construct: Antigen of the BLI experiments and of the HER2-Fc dimerisation ELISA; also called HER3 His; not shown: His tag
Briefly: BLI (Octet QK384), antibody on anti-human IgG capture tips, His-tagged human HER3 in solution, global 1:1 fit, R^2 = 0.9898, kon Error 8.22E+03; Response 0.0794 / 0.1744 / 0.3278 / 0.5079 at 35 / 69 / 139 / 278 nM. How it is done:
(§1) The anti-HER3 antibody clones in IgG1 format were analysed for binding affinity to human HER3. Bio-Layer Interferometry (BLI) experiments were performed using the Octet QK384 system (ForteBio). anti-Human IgG Capture (AHC) Octet sensor tips (Pall ForteBio, USA) were used to anti-HER3 antibodies (25 nM). All measurements were performed at 25° C. with agitation at 1000 rpm. […] Sensograms were referenced for buffer effects and then fitted using the Octet QK384 user software (Pall ForteBio, USA). Kinetic responses were subjected to a global fitting using a one site binding model to obtain values for association (Kₒₙ), dissociation (Koff) rate constants and the equilibrium dissociation constant (KD). Only curves that could be reliably fitted with the software (R²>0.90) were included in the analysis.
On the technique in general: BLI is a label-free optical method that tracks binding on a fibre tip over time.

Assay [2] concerns the target T2, His-tagged FcγRIIIa (V158) (human, UniProt P08637 17-208).
T2 construct: not shown: His tag
Nature of the assay: Bio-Layer Interferometry; His-tagged FcγRIIIa (V158) on anti-Penta-HIS tips, antibody in solution. How it is done: All measurements were performed at 25° C. with agitation at 1000 rpm. […] Sensograms were referenced for buffer effects and then fitted using the Octet QK384 user software (Pall ForteBio, USA). Kinetic responses were subjected to a global fitting using a one site binding model to obtain values for association (Kₒₙ), dissociation (Koff) rate constants and the equilibrium dissociation constant (KD). Only curves that could be reliably fitted with the software (R²>0.90) were included in the analysis.
BLI was performed as described above.

For assay [3], the target named is T3, human HER3 polypeptide (human, UniProt P21860 20-643).
T3 construct: Recombinant antigen of the ELISAs; also called human HER3 (Sino Biological Inc.); human antigen HER3
Nature of the assay: ELISA, plate coated with 0.1 ug/ml human HER3, antibody titrated, absorbance 450 nm. How it is done:
(§2) ELISAs were used to determine the binding specificity of the antibodies. The antibodies were analysed for binding to human HER3 polypeptide, as well as respective mouse, rat and monkey homologues of HER3 (Sino Biological Inc., China). The antibodies were also analysed for their ability to bind to human EGFR and human HER2 (Sino Biological Inc., China).
(§3) ELISAs were carried out according to standard protocols. Briefly, 96-well plates (Nunc, Denmark) were coated with 0.1 μg/ml of target polypeptide in phosphate-buffered saline (PBS) for 16 h at 4° C. After blocking for 1 h with 1% BSA in Tris buffer saline (TBS) at room temperature, the anti-HER3 antibody was serially diluted with the highest concentration being 10 μg/ml, and added to the plate. Post 1 h incubation at room temperature, plates were washed three times with TBS containing 0.05% Tween 20 (TBS-T) and were then incubated with a HRP-conjugated […] antibody (Life Technologies, Inc., USA) for 1 h at room temperature. After washing, plates were developed with colorimetric detection substrate 3,3′,5,5′-tetramethylbenzidine (Turbo-TMB; Pierce, USA) for 10 min. The reaction was stopped with 2M H₂SO₄, and OD was measured at 450 nm.
(In general: An ELISA detects its analyte on a solid surface through an enzyme-linked reagent.)

The target in assay [4] is T4, human EGFR (human, UniProt P00533 25-645).
T4 construct: also called human HER1 (EGFR) (Sino Biological Inc.)
Nature of the assay: ELISA, plate coated with 0.1 ug/ml human EGFR, antibody titrated, absorbance 450 nm. How it is done: as §2, §3

Assay [5] deals with T5, mouse HER3 (mouse, UniProt Q61526 20-641).
T5 construct: also called mouse homologue of HER3 (Sino Biological Inc.); M. musculus HER3
Briefly: ELISA, plate coated with 0.1 ug/ml mouse HER3, antibody titrated, absorbance 450 nm. How it is done: as §2, §3

Assay [6] deals with T6, cynomolgus macaque HER3 (cynomolgus macaque, UniProt G7PIG5 20-643).
T6 construct: also called monkey homologue of HER3 (Sino Biological Inc.); HER3 cyno
Briefly: ELISA, plate coated with 0.1 ug/ml cynomolgus HER3, antibody titrated, absorbance 450 nm. How it is done:
as §2, §3

Assay [7] has as its target T3, human HER3 polypeptide. Nature of the assay: ELISA, plate coated with 0.1 ug/ml human HER3, antibody titrated, absorbance 450 nm. How it is done:
as §2, §3
This is another data set of the same source.

Assay [8] addresses T7, human HER3 expressed on cells (HEK293 HER3 O/E cells) (human, UniProt P21860 20-1342).
T7 construct: Also used here for HER3 on U2OS cells of the PathHunter kit and on cancer cell lines; also called HEK293 cells transfected with vector encoding human HER3; human HER3-expressing cells
Briefly: flow cytometry, HEK293 cells overexpressing human HER3, 20 ug/ml antibody, FITC anti-Fc secondary; same antibody on WT HEK293: 0.60. How it is done: (§4) The cells were washed thrice with FACS buffer (PBS with 5 mM EDTA and 0.5% BSA) and resuspended in FITC-conjugated anti-FC antibody (Invitrogen, USA) for 40 min at 2-8° C. Cells were washed again and resuspended in 200 μL of FACS flow buffer (PBS with 5 mM EDTA) for flow cytometric analysis using MACSQuant 10 (Miltenyi Biotec, Germany). After acquisition, all raw data were analyzed using Flowlogic software. Cells were gated using forward and side scatter profile percentage of positive cells was determined for native and overexpressing cell populations.
A general note: A flow cytometer gives signals particle by particle.

For assay [9], the target named is T7, human HER3 expressed on cells (HEK293 …). Described as above. How it is done:
as §4
This is another data set of the same source.

Assay [10] has as its target T8, human HER2 (human, UniProt P04626 23-652).
T8 construct: also called human HER2 (Sino Biological Inc.)
Nature of the assay: ELISA, plate coated with 0.1 ug/ml human HER2, antibody titrated, absorbance 450 nm. How it is done:
as §2, §3

Assay [11] has as its target T1, His-tagged human HER3. Nature of the assay: BLI (Octet QK384), antibody on anti-human IgG capture tips, His-tagged human HER3 35-278 nM, global 1:1 fit; kdis Error 1.56E-04. How it is done: as §1
The target of assay [12] is T1, His-tagged human HER3. Nature of the assay: BLI (Octet QK384), antibody on anti-human IgG capture tips, His-tagged human HER3 in solution, global one-site fit. How it is done: as §1
The target of assay [13] is T7, human HER3 expressed on cells (HEK293 …). Nature of the assay: flow cytometry on HEK293T HER3 O/E cells, 10 ug antibody as printed, FITC-conjugated anti-Fc secondary. How it is done:
The cells were washed with buffer (PBS with 2 mM EDTA and 0.5% BSA) and resuspended in FITC-conjugated anti-FC antibody (Invitrogen, USA) at 10 μg/ml for 20 min at 4° C. Cells were washed again and resuspended in 200 μL of FACS flow buffer (PBS with 5 mM EDTA) for flow cytometric analysis using MACSQuant 10 (Miltenyi Biotec, Germany). Unstained WT and transfected HEK293 cells were included in the analysis as negative controls. After acquisition, all raw data were analyzed using Flowlogic software. Cells were gated using forward and side scatter profile percentage of positive cells was determined for native and overexpressing cell populations.

For assay [14], the target named is T9, rat HER3 (rat, UniProt Q62799 20-641, limits assumed).
T9 construct: also called rat homologue of HER3 (Sino Biological Inc.); R. norvegicus HER3
Nature of the assay: ELISA, plate coated with 0.1 ug/ml rat HER3, antibody titrated, absorbance 450 nm. How it is done:
as §2, §3

Assay [15] concerns the target T1, His-tagged human HER3. Briefly: BLI (Octet QK384), antibody on anti-human IgG capture tips, His-tagged human HER3 in solution, global 1:1 fit, R^2 = 0.9891, kon Error 1.04E+04; Response 0.1355 / 0.3221 / 0.4533 / 0.5944 at 35 / 39 (as printed in the table; graph label 69) / 139 / 278 nM. How it is done:
as §1

Assay [16] deals with T1, His-tagged human HER3. Nature of the assay: BLI (Octet QK384), antibody on anti-human IgG capture tips, His-tagged human HER3 35-278 nM, global 1:1 fit. How it is done: as §1
The target of assay [17] is T7, human HER3 expressed on cells (HEK293 …). Briefly: flow cytometry, HEK293 cells overexpressing human HER3 (293_OE HER3), 20 ug/ml antibody, FITC anti-Fc secondary; same antibody on 293 cells: 2.48; unstained 293: 0.14. How it is done: as §4
For assay [18], the target named is T3, human HER3 polypeptide. Nature of the assay: ELISA, plate coated with human HER3, antibody titrated, absorbance 450 nm, x axis Log([Ab]) (ug/ml).
The target of assay [19] is T1, His-tagged human HER3. Briefly: BLI (Octet QK384), antibody on anti-human IgG capture tips, His-tagged human HER3 35-278 nM, global 1:1 fit; kdis Error 1.11E-04. How it is done: as §1
The target of assay [20] is T1, His-tagged human HER3. Nature of the assay: BLI (Octet QK384), antibody on anti-human IgG capture tips, His-tagged human HER3 in solution, global 1:1 fit, R^2 = 0.9917, kon Error 9.57E+03; Response 0.1296 / 0.2851 / 0.4098 / 0.5575 at 35 / 69 / 139 / 278 nM. How it is done: as §1
Assay [21] deals with T7, human HER3 expressed on cells (HEK293 …). Briefly: flow cytometry, HEK293 cells overexpressing human HER3 (293_OE HER3), 20 ug/ml antibody, FITC anti-Fc secondary; same antibody on 293 cells: 5.38; unstained 293: 0.14. How it is done:
as §4

T9 sequence (Q62799 20-641 limits assumed): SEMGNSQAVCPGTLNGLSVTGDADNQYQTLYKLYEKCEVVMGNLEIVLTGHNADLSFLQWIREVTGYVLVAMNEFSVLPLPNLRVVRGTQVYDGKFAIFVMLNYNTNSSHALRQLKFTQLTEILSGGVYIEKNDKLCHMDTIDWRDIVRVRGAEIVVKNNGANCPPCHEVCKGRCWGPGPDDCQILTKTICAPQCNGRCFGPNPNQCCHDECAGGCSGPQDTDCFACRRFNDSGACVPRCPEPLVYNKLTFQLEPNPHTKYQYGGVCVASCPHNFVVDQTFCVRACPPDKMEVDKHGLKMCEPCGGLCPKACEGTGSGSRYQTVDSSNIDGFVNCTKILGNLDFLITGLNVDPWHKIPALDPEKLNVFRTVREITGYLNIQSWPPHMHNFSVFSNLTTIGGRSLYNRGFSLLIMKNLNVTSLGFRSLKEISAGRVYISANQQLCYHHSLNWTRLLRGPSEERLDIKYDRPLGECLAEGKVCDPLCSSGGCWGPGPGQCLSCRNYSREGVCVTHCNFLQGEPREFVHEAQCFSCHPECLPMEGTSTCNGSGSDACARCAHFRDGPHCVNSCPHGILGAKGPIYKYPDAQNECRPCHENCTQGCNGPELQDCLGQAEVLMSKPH
T5 sequence (Q61526 20-641 limits assumed): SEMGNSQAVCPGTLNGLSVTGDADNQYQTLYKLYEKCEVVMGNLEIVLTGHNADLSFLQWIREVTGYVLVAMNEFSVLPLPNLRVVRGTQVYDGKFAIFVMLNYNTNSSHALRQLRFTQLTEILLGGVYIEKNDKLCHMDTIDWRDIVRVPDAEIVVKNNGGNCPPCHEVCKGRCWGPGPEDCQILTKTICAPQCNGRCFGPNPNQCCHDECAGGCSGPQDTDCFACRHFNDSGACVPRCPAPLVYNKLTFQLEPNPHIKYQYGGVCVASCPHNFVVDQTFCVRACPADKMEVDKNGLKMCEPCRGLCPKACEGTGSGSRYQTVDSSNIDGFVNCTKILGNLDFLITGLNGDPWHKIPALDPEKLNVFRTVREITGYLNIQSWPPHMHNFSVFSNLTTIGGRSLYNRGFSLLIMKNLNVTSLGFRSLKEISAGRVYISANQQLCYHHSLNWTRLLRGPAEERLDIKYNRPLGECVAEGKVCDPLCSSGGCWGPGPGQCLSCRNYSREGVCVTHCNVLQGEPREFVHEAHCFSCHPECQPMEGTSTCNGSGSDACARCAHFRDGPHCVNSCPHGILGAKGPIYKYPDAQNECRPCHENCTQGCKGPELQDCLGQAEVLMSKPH
T6 sequence (G7PIG5 entry or part of it): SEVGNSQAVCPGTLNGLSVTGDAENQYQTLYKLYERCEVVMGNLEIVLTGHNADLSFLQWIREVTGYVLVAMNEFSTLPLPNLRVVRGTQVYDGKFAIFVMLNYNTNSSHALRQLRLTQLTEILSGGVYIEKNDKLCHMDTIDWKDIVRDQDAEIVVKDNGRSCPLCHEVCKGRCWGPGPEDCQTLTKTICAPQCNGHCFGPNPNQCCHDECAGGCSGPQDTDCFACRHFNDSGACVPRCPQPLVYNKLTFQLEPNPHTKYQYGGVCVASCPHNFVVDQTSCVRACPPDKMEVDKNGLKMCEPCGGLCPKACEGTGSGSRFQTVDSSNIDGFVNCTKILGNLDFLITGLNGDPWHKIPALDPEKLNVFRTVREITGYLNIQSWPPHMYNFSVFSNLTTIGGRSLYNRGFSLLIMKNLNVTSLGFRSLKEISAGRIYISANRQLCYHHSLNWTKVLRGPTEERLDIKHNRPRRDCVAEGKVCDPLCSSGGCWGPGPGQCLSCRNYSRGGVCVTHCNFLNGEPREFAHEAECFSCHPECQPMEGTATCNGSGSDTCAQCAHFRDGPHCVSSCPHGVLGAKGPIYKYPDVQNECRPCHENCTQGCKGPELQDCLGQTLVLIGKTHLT

B1: anti-HER3 clone 10D1 IgG1 (antibody)
heavy: not shown
light: DIVMTQSQKFMSTSVGDRVSVTCKASQIVGSNVAWYQQKPGQSPKPLIYSASYRYSGVPDRFTASGSGTDFTLTITNVQSEDLAEYFCQQYSSHPLTFGAGTKLELKRTVAAPSVFIFPPSDEQLKSGTASVVCLLNNFYPREAKVQWKVDNALQSGNSQESVTEQDSKDSTYSLSSTLTLSKADYEKHKVYACEVTHQGLSSPVTKSFNRGEC
notes: Mouse variable regions on human IgG1/kappa constant regions (human-mouse chimeric antibody); also called 10D1P; 10D1 (parental)
One may read the kon as the second-order rate constant of association. Low values mean slower complex formation, high ones faster complex formation. What is called Kd is the concentration at which binding is half-saturated. A word on the koff: it is the first-order rate constant of dissociation. For orientation: EC50 means the concentration giving half of the maximal effect. For B1, the kon in assay [1] was determined as 180000 M⁻¹ s⁻¹; in assay [2], 130000 M⁻¹ s⁻¹. Moreover, the Kd stood at 298 nM in [2] and 9.58 nM in assay [12]. Moreover, the off-rate constant (koff) in assay [2] was found to be 0.04 s⁻¹; in assay [11], 0.00173 s⁻¹. Further, the EC50 was found to be 0.00588 nM in assay [3]; 0.137 nM in [5]; 0.00368 nM in assay [6]; 0.00588 nM in [7]; 0.372 nM in assay [14]. The binding result in assay [4] and in [10] was “no binding (tested: log(M) about -6.7)” in each case. The “% Parent (HER3 positive)” value in assay [8] came out at 99%; in [9], 99%; in assay [13], 65.7%.

B2: anti-HER3 clone 10D1_c90 IgG1 (antibody, V domains shown)
VH: QVQLQESGPGLVKPSQTLFLTCTVSGYSITSGYSWHWIRQHPGKGLEWIGSIRYSGGTDYNPSLKSLVTISVDTSKNQFSLKLSSVTAADTAVYYCARMTTAPWYPFDYWGQGTTVTVSS
VL: DIQMTQSPSSVSASVGDRVTFTCKASQIVGSNVAWYQQKPGKAPEPLIYSASYLYSSVPSRFSGSGSGTEFTMTISSLEPEDFATYYCQQYTTHPLTFGPGTKVEIKR
notes: Humanised 10D1 variant, IgG1/kappa
The EC50 (read off the curve) is the concentration needed to bring the measured effect to its halfway point. A low value points to greater potency. B2: the association rate constant (kon) in assay [15] is 252000 M⁻¹ s⁻¹. For the same molecule, in assay [16], the koff is < 1e-07 s⁻¹. Moreover, the “% Parent (HER3 positive)” value in assay [17] was determined as 41.8%. For the same molecule, in assay [12], the equilibrium dissociation constant (Kd) is < 0.001 nM. The “EC50 (read off the curve)” value in [18] is ~7 ng/mL.

B3: anti-HER3 clone 10D1_c91 IgG1 (antibody, V domains shown)
VH: QVQLQESGPGLVKPSQTLSLTCTVSGYYITSGYSWHWIRQHPGKGLEWIGSIRYSGGTDYNPSLKSLATISADTSKNQFSLKLSSVTAADTAVYYCARMTTAPWYPFDYWGQGTAVTVSS
VL: DIQMTQSPSSVSASVGDRVTITCKASQIVGSNVAWYQQKPGKAPMPLIYSASYGYSGVPSRFSGSGSGTDFTLTISSLQPEDFATYYCQQYSSHPLTFGQGTKLEIKR
notes: as for B2
For B3, the off-rate constant (koff) in [19] was 4.73e-05 s⁻¹. In assay [20], this molecule had a kon of 269000 M⁻¹ s⁻¹. The affinity in assay [12], expressed as Kd, was 0.176 nM. In assay [21], the “% Parent (HER3 positive)” value was 48%. Further, in assay [18], the concentration giving a half-maximal response (EC50 (read off the curve)) is ~5 ng/mL.

These data come from patent US20250122303A1 (HUMMINGBIRD BIOSCIENCE PTE, published 2025).
